In publication PMC4898930:

Target: Myc-N1
Assay: co-immunoprecipitation (IP with Myc antibody), quantification of western blot bands
Settings: HEK293 cells, more than 3 independent experiments, read off a plot

response (relative intensity) (control (without HA-RhoC), parent: est. 1.0): 0.47 | response (relative intensity) (with HA-RhoC co-expressed, parent: est. 1.7): 0.2
Substance: Fam65b-GFP (from UniProt Q80U16) RL/AA
